# From patent US20230381277A1, “HIGH AFFINITY IL-2 RECEPTOR AGONISTS AND IMMUNOSUPPRESSANTS TO ENHANCE IMMUNE TOLERANCE” (Selecta Biosciences, Inc., priority 2022, published 2023)
# Test system: Ovalbumin-specific OTII T cells
# Assay: Example 5: adoptive transfer of ovalbumin-specific OTII T cells, antigen-specific Treg induction
# Format: in vivo
# Settings: mice with adoptively transferred OTII T cells; starting level ~3%
# Method: However, expansion of antigen-specific Treg can be more desirable than expansion of total Treg. The ability of ImmTOR plus antigen combined with IL-2 mutein to induce and/or expand antigen-specific Treg was evaluated. Ovalbumin-specific OTII T cells were adoptively transferred into mice prior to treatment with ovalbumin and ImmTOR and/or IL-2 mutein.
molecule,measurement,value
"ovalbumin (protein, UniProt P01012 2-386, looked up) Ovalbumin: GSIGAASMEFCFDVFKELKVHHANENIFYCPIAIMSALAMVYLGAKDSTRTQINKVVRFDKLPGFGDSIEAQCGTSVNVHSSLRDILNQITKPNDVYSFSLASRLYAEERYPILPEYLQCVKELYRGGLEPINFQTAADQARELINSWVESQTNGIIRNVLQPSSVDSQTAMVLVNAIVFKGLWEKAFKDEDTQAMPFRVTEQESKPVQMMYQIGLFRVASMASEKMKILELPFASGTMSMLVLLPDEVSGLEQLESIINFEKLTEWTSSNVMEERKIKVYLPRMKMEEKYNLTSVLMAMGITDVFSSSANLSGISSAESLKISQAVHAAHAEINEAGREVVGSAEAGVDAASVSEEFRADHPFLFCIKHIATNAVLFFGRCVSP",percentage of Foxp3+ DTII cells,~6%
